Here are results for two molecules from PMC6322289, “The formation and accumulation of protein-networks by physical interactions in the rapid occlusion of laticifer cells in rubber tree undergoing successive mechanical wounding” (BMC Plant Biology, 2019).

In the assay the target is T1, β-1,3-glucanase (Hevea brasiliensis (endogenous in latex …, UniProt P52407 37-356)).
T1 construct: β-1,3-glucanase of the lutoids (B-serum) of Hevea brasiliensis latex; two bands of about 35.5 and 41 kDa, both recognised by anti-glucanase and identified as β-1,3-glucanase by MALDI TOF MS; The preparation holds two forms (35.5 and 41 kDa); source: purified from B-serum of rubber tree latex (0-65% (NH4)2SO4, CM Sepharose Fast Flow); also unpurified in B-serum
T1 sequence (P52407 37-356): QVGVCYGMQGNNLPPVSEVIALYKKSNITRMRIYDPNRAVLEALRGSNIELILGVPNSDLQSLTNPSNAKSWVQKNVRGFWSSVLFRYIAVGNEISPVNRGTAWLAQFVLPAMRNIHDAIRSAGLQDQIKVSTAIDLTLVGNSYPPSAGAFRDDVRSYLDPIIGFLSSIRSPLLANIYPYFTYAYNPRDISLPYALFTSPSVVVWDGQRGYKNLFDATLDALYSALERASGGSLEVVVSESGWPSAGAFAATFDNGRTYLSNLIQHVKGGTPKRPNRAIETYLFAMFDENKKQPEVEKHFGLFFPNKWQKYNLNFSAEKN
Nature of the assay: SPR; Biacore 3000, 25 °C; β-1,3-glucanase amine-coupled to a CM5 chip (5000 RU); analytes flowed in HBS-EP pH 7.4 at 30 μL/min; multi-cycle kinetics, 1:1 Langmuir fit; apparent constants. To be noted: both partners purified. In general terms: In SPR one partner is held on a chip, and binding of the other changes the refractive index at the surface.

B1: pro-hevein (natural protein, UniProt P02877 18-204, looked up)
chain: EQCGRQAGGKLCPNNLCCSQWGWCGSTDEYCSPDHNCQSNCKDSGEGVGGGSASNVLATYHLYNSQDHGWDLNAASAYCSTWDANKPYSWRSKYGWTAFCGPVGAHGQSSCGKCLSVTNTGTGAKTTVRIVDQCSNGGLDLDVNVFRQLDTDGKGYERGHITVNYQFVDCGDSFNPLFSVMKSSVIN
notes: source: purified from B-serum of rubber tree latex (Sephacryl S-200HR); also unpurified in B-serum
On to B1, for which the Kd worked out at 231 µM.

B2: hevein (natural protein, UniProt P02877 18-60, looked up)
chain: EQCGRQAGGKLCPNNLCCSQWGWCGSTDEYCSPDHNCQSNCKD
notes: hevein, the N-terminal part split from pro-hevein, Hevea brasiliensis; runs at 10 kDa in Tricine-SDS-PAGE; source: purified from B-serum of rubber tree latex (85-95% (NH4)2SO4, Sephacryl S-200HR); also unpurified in B-serum
Turning to B2, the Kd is 87.9 µM.
